Assay results published in patent publication US20230331809A1 (Zymeworks, published 2023).

How the values were obtained:
[1] = molecular target: T1, CDH3 (Cadherin 3) on JIMT1 cells (UniProt P22223 108-829, limits assumed); assay: flow cytometry on JIMT1 cells (CDH3), MFI
T1 construct: whole, on cells; also called P-cadherin

[2] = molecular target: T1, CDH3 (Cadherin 3) on JIMT1 cells; assay: flow cytometry on JIMT1 cells (CDH3), MFI; reference sample
[3] = molecular target: T2, PD-L1 (Programmed death-ligand 1) on cells (UniProt Q9NZQ7 19-290); assay: flow cytometry on PD-L1 transfected CHO-S cells, MFI; * poor fit; uncleavable variant, sample treated with uPa
T2 construct: whole, on cells

[4] = molecular target: T3, PD-1 (Programmed Cell Death Protein 1) on cells (UniProt Q15116 25-288); assay: flow cytometry on PD-1 transfected CHO-S cells, MFI; * poor fit; uncleavable variant, table and legend box disagree on the uPa treatment
T3 construct: whole, on cells

[5] = molecular target: T4, CD40 (Cluster of Differentiation 40) on cells (UniProt P25942 21-277, limits assumed); assay: cell-based or functional assay
[6] = molecular target: T4, CD40 (Cluster of Differentiation 40) on …; assay: flow cytometry on Raji cells (CD40), MFI
[7] = molecular target: T4, CD40 (Cluster of Differentiation 40) on …; assay: flow cytometry on Raji cells (CD40), MFI; EC50 relative to v32477 -uPa
[8] = molecular target: T4, CD40 (Cluster of Differentiation 40) on …; assay: flow cytometry on Raji cells (CD40), MFI; sample treated with uPa; EC50 relative to v32477 -uPa
[9] = molecular target: T4, CD40 (Cluster of Differentiation 40) on …; assay: flow cytometry on Raji cells (CD40), MFI; sample treated with uPa (variant has no cleavage site)
[10] = molecular target: T2, PD-L1 (Programmed death-ligand 1) on …; assay: cell-based or functional assay
[11] = molecular target: T5, CD3 (Cluster of Differentiation 3) on Jurkat cells and on pan T cells (human, UniProt P07766 23-207); assay: flow cytometry on pan T cells (CD3), MFI
T5 construct: whole, on cells

[12] = molecular target: T5, CD3 (Cluster of Differentiation 3) on …; assay: flow cytometry on human pan T cells, separate experiment (FIG. 32)
[13] = molecular target: T5, CD3 (Cluster of Differentiation 3) on …; assay: cell ELISA on Jurkat cells (CD3), OD450
[14] = molecular target: T5, CD3 (Cluster of Differentiation 3) on …; assay: cell ELISA on Jurkat cells (CD3), OD450; remark: listed apart in the source
[15] = molecular target: T5, CD3 (Cluster of Differentiation 3) on …; assay: flow cytometry on pan T cells (CD3), MFI; remark: listed apart in the source
[16] = molecular target: T5, CD3 (Cluster of Differentiation 3) on …; assay: cell ELISA on Jurkat cells (CD3), OD450; reference sample
[17] = molecular target: T3, PD-1 (Programmed Cell Death Protein 1) …; assay: flow cytometry on PD-1 transfected CHO-S cells, MFI; * poor fit
[18] = molecular target: T2, PD-L1 (Programmed death-ligand 1) on …; assay: flow cytometry on PD-L1 transfected CHO-S cells, MFI; * poor fit
[19] = molecular target: T5, CD3 (Cluster of Differentiation 3) on …; assay: flow cytometry on pan T cells (CD3), MFI; sample treated with uPa (variant has no mask)
[20] = molecular target: T5, CD3 (Cluster of Differentiation 3) on …; assay: flow cytometry on pan T cells (CD3), MFI; sample treated with uPa; EC50 relative to v30421 -uPa
[21] = molecular target: T6, Mesothelin (MSLN) on OVCAR3 cells (UniProt Q13421 296-598); assay: flow cytometry on OVCAR3 cells (MSLN), MFI
T6 construct: whole, on cells

[22] = molecular target: T6, Mesothelin (MSLN) on OVCAR3 cells; assay: flow cytometry on OVCAR3 cells (MSLN), MFI; EC50 relative to v16417
[23] = molecular target: T1, CDH3 (Cadherin 3) on JIMT1 cells; assay: flow cytometry on JIMT1 cells (CDH3), MFI; EC50 relative to v17214

B1: Variant 17214: Unmasked aCDH3 mAb (antibody, human IgG1, lambda)
heavy: not shown
light: GQSALTQPASVSGSPGQSITISCTGTSNDVGAYNYVSWYQQHPGKAPKLMISEVNKRPSGVSNRFSGSKSGNTASLTISGLQAEDEADYYCSSFTSGLPWVVFGGGTKLTVLGQPKAAPSVTLFPPSSEELQANKATLVCLISDFYPGAVTVAWKADSSPVKAGVETTTPSKQSNNKYAASSYLSLTPEQWKSHRSYSCQVTHEGSTVEKTVAPTECS
EC50 [1]: 0.36 nM
Fold wrt WT [2]: 1 fold

B2: Variant 30426: WT PD-1:HA PD-L1 masked CD3 × Her2 Fab × scFv Fc, with an uncleavable linker (bispecific antibody, human IgG1, kappa, L234A L235A)
heavy: not shown
light: AFTVTVPKDLYVVEYGSNMTIECKFPVEKQLDLAALQVFWMMEDKNIIQFVHGEEDLKVQHSSYRQRARLLKDQLSLGNAALQITDVKLQDAGVYTCLIAYKGADYKRITVKVNAEAAAKEAAAKDIQMTQSPSSLSASVGDRVTMTCSASSSVSYMNWYQQKPGKAPKRWIYDSSKLASGVPARFSGSGSGTDYTLTISSLQPEDFATYYCQQWSRNPPTFGGGTKLQITRTVAAPSVFIFPPSDEQLKSGTASVVCLLNNFYPREAKVQWKVDNALQSGNSQESVTEQDSKDSTYSLSSTLTLSKADYEKHKVYACEVTHQGLSSPVTKSFNRGEC
chain: not shown
Fold wrt v31929 [3]: > 570 fold
Fold wrt v31931 [4]: > 35 fold

B3: Variant 32478: HA PD-1:WT PD-L1 masked aCD40 Mab, uncleavable (antibody, human IgG1, kappa)
heavy: not shown
light: AFTVTVPKDLYVVEYGSNMTIECKFPVEKQLDLAALIVYWEMEDKNIIQFVHGEEDLKVQHSSYRQRARLLKDQLSLGNAALQITDVKLQDAGVYRCMISYGGADYKRITVKVNAEAAAKEAAAKDIQMTQSPSSVSASVGDRVTITCRASQGIYSWLAWYQQKPGKAPNLLIYTASTLQSGVPSRFSGSGSGTDFTLTISSLQPEDFATYYCQQANIFPLTFGGGTKVEIKRTVAAPSVFIFPPSDEQLKSGTASVVCLLNNFYPREAKVQWKVDNALQSGNSQESVTEQDSKDSTYSLSSTLTLSKADYEKHKVYACEVTHQGLSSPVTKSFNRGEC
notes: also called v32478
EC50, CD40 RGA, FcgRIIB CHOK1 (sample v32478 + uPa) [5]: 4.28 µg/mL
EC50, CD40 RGA, FcgRIIB CHOK1 (sample v32478 - uPa) [5]: 5.43 µg/mL
Fold wrt WT (EC50), CD40 RGA, FcgRIIB CHOK1 (sample v32478 + uPa) [5]: 88.2 fold
Fold wrt WT (EC50), CD40 RGA, FcgRIIB CHOK1 (sample v32478 - uPa) [5]: 112 fold
EC50 [6]: 41 nM
Fold wrt WT [7]: 42 fold
Fold wrt WT [8]: 67 fold
EC50 [9]: 65 nM

B4: Variant 32497: Half-masked CD3 × Her2 Fab × scFv Fc, PD-1 KO attached to HC (bispecific antibody, human IgG1, kappa, L234A L235A)
heavy: not shown
light: DIQMTQSPSSLSASVGDRVTMTCSASSSVSYMNWYQQKPGKAPKRWIYDSSKLASGVPARFSGSGSGTDYTLTISSLQPEDFATYYCQQWSRNPPTFGGGTKLQITRTVAAPSVFIFPPSDEQLKSGTASVVCLLNNFYPREAKVQWKVDNALQSGNSQESVTEQDSKDSTYSLSSTLTLSKADYEKHKVYACEVTHQGLSSPVTKSFNRGEC
chain: not shown
notes: also called v32497; variant with a non-functional PD-1 domain appended to the heavy chain
TDCC potency on JIMT-1 target cells, fold EC50 vs unmasked v30421 [10]: 55 fold
EC50 [11]: 13 nM
fold reduction in binding vs unmasked control [12]: 6 fold

B5: Variant 30421: CD3 × Her2 Fab × scFv Fc without mask (bispecific antibody, human IgG1, kappa, L234A L235A)
heavy: not shown
light: DIQMTQSPSSLSASVGDRVTMTCSASSSVSYMNWYQQKPGKAPKRWIYDSSKLASGVPARFSGSGSGTDYTLTISSLQPEDFATYYCQQWSRNPPTFGGGTKLQITRTVAAPSVFIFPPSDEQLKSGTASVVCLLNNFYPREAKVQWKVDNALQSGNSQESVTEQDSKDSTYSLSSTLTLSKADYEKHKVYACEVTHQGLSSPVTKSFNRGEC
chain: not shown
notes: also called v30421; unmasked variant
EC50 [13]: 1.2 nM
EC50 [14]: 1.2 nM
EC50 [15]: 2.3 nM
EC50 [11]: 2.1 nM
Fold wrt WT [16]: 1 fold
Fold wrt v31931 [17]: > 35 fold
Fold wrt v31929 [18]: > 570 fold
EC50 [19]: 5.3 nM
Fold wrt WT [20]: 2.3 fold

B6: Variant 31729: HA PD-1:WT PD-L1 masked aMSLN Mab, PD-L1 cleavable (not treated with uPa) (antibody, human IgG1, kappa)
heavy: not shown
light: AFTVTVPKDLYVVEYGSNMTIECKFPVEKQLDLAALIVYWEMEDKNIIQFVHGEEDLKVQHSSYRQRARLLKDQLSLGNAALQITDVKLQDAGVYRCMISYGGADYKRITVKVNAEAAAKEAAAKMSGRSANADIQMTQSPSSLSASVGDRVTITCSASSSVSYMHWYQQKSGKAPKLLIYDTSKLASGVPSRFSGSGSGTDFTLTISSLQPEDFATYYCQQWSKHPLTFGQGTKLEIKRTVAAPSVFIFPPSDEQLKSGTASVVCLLNNFYPREAKVQWKVDNALQSGNSQESVTEQDSKDSTYSLSSTLTLSKADYEKHKVYACEVTHQGLSSPVTKSFNRGEC
EC50 [21]: 74 nM
Fold wrt WT (EC50) [22]: 31 fold

B7: Variant 28662: HA PD-1:WT PD-L1 masked aCDH3 Mab, uncleavable (antibody, human IgG1, lambda)
heavy: not shown
light: AFTVTVPKDLYVVEYGSNMTIECKFPVEKQLDLAALIVYWEMEDKNIIQFVHGEEDLKVQHSSYRQRARLLKDQLSLGNAALQITDVKLQDAGVYRCMISYGGADYKRITVKVNAEAAAKEAAAKQSALTQPASVSGSPGQSITISCTGTSNDVGAYNYVSWYQQHPGKAPKLMISEVNKRPSGVSNRFSGSKSGNTASLTISGLQAEDEADYYCSSFTSGLPWVVFGGGTKLTVLGQPKAAPSVTLFPPSSEELQANKATLVCLISDFYPGAVTVAWKADSSPVKAGVETTTPSKQSNNKYAASSYLSLTPEQWKSHRSYSCQVTHEGSTVEKTVAPTECS
EC50 [1]: 9.8 nM
Fold wrt WT [23]: 28 fold
